Source: IntAct's records for PubMed 16002700

B1: Natural killer cell receptor 2B4 (Homo sapiens), Q9BZW8 (parent)
chain: MLGQVVTLILLLLLKVYQGKGCQGSADHVVSISGVPLQLQPNSIQTKVDSIAWKKLLPSQNGFHHILKWENGSLPSNTSNDRFSFIVKNLSLLIKAAQQQDSGLYCLEVTSISGKVQTATFQVFVFESLLPDKVEKPRLQGQGKILDRGRCQVALSCLVSRDGNVSYAWYRGSKLIQTAGNLTYLDEEVDINGTHTYTCNVSNPVSWESHTLNLTQDCQNAHQEFRFWPFLVIIVILSALFLGTLACFCVWRRKRKEKQSETSPKEFLTIYEDVKDLKTRRNHEQEQTFPGGGSTIYSMIQSQSSAPTSQEPAYTLYSLIQPSRKSGSRKRNHSPSFNSTIYEVIGKSQPKAQNPARLSRKELENFDVYS

Variants of: B1
Details: with cd48_human CD48, P09326
cd48_human CD48, P09326, sequence (P09326 whole entry): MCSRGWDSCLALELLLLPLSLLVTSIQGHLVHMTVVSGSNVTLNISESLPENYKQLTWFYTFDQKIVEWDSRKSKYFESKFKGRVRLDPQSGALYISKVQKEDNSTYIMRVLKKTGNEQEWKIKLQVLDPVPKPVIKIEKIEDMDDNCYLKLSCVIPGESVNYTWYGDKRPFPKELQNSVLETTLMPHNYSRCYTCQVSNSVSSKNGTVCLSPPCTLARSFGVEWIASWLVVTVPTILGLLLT

| effect of a mutation on the interaction | Variant |
| --- | --- |
| decreasing interaction | MLGQVVTLILLLLLKVYQGKGCQGSADHVVSISGVPLQLQPNSIQTKVDSIAWKKLLPSQNGFHHILKWANGSLPSNTSNDRFSFIVKNLSLLIKAAQQQDSGLYCLEVTSISGKVQTATFQVFVFESLLPDKVEKPRLQGQGKILDRGRCQVALSCLVSRDGNVSYAWYRGSKLIQTAGNLTYLDEEVDINGTHTYTCNVSNPVSWESHTLNLTQDCQNAHQEFRFWPFLVIIVILSALFLGTLACFCVWRRKRKEKQSETSPKEFLTIYEDVKDLKTRRNHEQEQTFPGGGSTIYSMIQSQSSAPTSQEPAYTLYSLIQPSRKSGSRKRNHSPSFNSTIYEVIGKSQPKAQNPARLSRKELENFDVYS [E70A] |
| decreasing interaction | MLGQVVTLILLLLLKVYQGKGCQGSADHVVSISGVPLQLQPNSIQTKVDSIAWKKLLPSQNGFHHILAWENGSLPSNTSNDRFSFIVKNLSLLIKAAQQQDSGLYCLEVTSISGKVQTATFQVFVFESLLPDKVEKPRLQGQGKILDRGRCQVALSCLVSRDGNVSYAWYRGSKLIQTAGNLTYLDEEVDINGTHTYTCNVSNPVSWESHTLNLTQDCQNAHQEFRFWPFLVIIVILSALFLGTLACFCVWRRKRKEKQSETSPKEFLTIYEDVKDLKTRRNHEQEQTFPGGGSTIYSMIQSQSSAPTSQEPAYTLYSLIQPSRKSGSRKRNHSPSFNSTIYEVIGKSQPKAQNPARLSRKELENFDVYS [K68A] |
| disrupting interaction | MLGQVVTLILLLLLKVYQGKGCQGSADHVVSISGVPLQLQPNSIQTKVDSIAWKKLLPSQNGFHHILAWANGSLPSNTSNDRFSFIVKNLSLLIKAAQQQDSGLYCLEVTSISGKVQTATFQVFVFESLLPDKVEKPRLQGQGKILDRGRCQVALSCLVSRDGNVSYAWYRGSKLIQTAGNLTYLDEEVDINGTHTYTCNVSNPVSWESHTLNLTQDCQNAHQEFRFWPFLVIIVILSALFLGTLACFCVWRRKRKEKQSETSPKEFLTIYEDVKDLKTRRNHEQEQTFPGGGSTIYSMIQSQSSAPTSQEPAYTLYSLIQPSRKSGSRKRNHSPSFNSTIYEVIGKSQPKAQNPARLSRKELENFDVYS [K68A;E70A] |
